# Experimental data as given in patent publication US20180282719A1 (published 2018).
# T1: recombinant soluble human IL-6 receptor (SR344) (human, UniProt P08887 20-344, biotinylated (sites not given) where immobilized via streptavidin or used in phage ELISA)
# T1 construct: also called soluble IL-6 receptor; membrane-type IL-6 receptor (when biotinylated and immobilized on the chip)
# T1 sequence (looked up): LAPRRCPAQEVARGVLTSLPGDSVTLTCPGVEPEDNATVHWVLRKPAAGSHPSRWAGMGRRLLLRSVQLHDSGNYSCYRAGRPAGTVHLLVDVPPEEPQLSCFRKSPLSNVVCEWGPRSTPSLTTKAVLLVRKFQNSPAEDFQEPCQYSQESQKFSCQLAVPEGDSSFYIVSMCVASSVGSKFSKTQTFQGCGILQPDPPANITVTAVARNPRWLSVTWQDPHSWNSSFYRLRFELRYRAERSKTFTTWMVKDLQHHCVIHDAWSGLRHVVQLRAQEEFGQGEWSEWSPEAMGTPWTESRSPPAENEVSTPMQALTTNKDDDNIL
# Assays:
# [1] = target: T1, recombinant soluble human IL-6 receptor …; assay: SPR Biacore T100, antibody on protein A/G chip, SR344 analyte, pH 5.8, 37 C
# Protocol: Kinetic analyses of antigen-antibody reactions at pH 5.8 and pH 7.4 were carried out using a Biacore™ T100 surface plasmon resonance system (GE Healthcare) on the four antibodies: humanized PM1 antibody (WT) and H3pI/L73, CLH5/L73, and H170/L82 produced in Examples 2 and 4 (buffer: 10 mM MES (pH 7.4 or pH 5.8), 150 mM NaCl, and 0.05% TWEEN® 20 (polyoxyethelene sorbitan monolaurate)). Various antibodies were bound onto a sensor chip immobilized with recomb-protein A/G (Pierce) by amine coupling. SR344 adjusted to concentrations of 9.8 to 400 nM was injected to the chip as an analyte. […] All the measurements were carried out at 37° C. Association rate constants kₐ (1/Ms) and dissociation rate constants kd (1/s) were calculated using Biacore T100™ Evaluation Software (GE Healthcare), and dissociation constants KD (M) were calculated on the basis of those values (Table 5). Moreover, the ratio of the affinities at pH 5.8 and pH 7.4 were calculated for each clone to evaluate pH-dependent binding. All the measurements were carried out at 37° C.
# [2] = target: T1, recombinant soluble human IL-6 receptor …; assay: SPR Biacore T100, biotinylated SR344 on streptavidin chip (model of membrane IL-6 receptor), antibody 0.5 ug/mL as analyte, 37 C
# Protocol: (§1) The binding to membrane IL-6 receptor was evaluated by evaluating the binding to the IL-6 receptor immobilized onto a sensor chip. SR344 was biotinylated according to a method known to persons skilled in the art, and the biotinylated SR344 was immobilized on the sensor chip via streptavidin by utilizing the affinity between streptavidin and biotin. All the measurements were carried out at 37° C., and the mobile phase buffer contained 10 mM MES (pH 5.8), 150 mM NaCl and 0.05% TWEEN® 20 (polyoxyethelene sorbitan monolaurate). The pH-dependent binding clones were injected therein under the condition of pH 7.4 and allowed to bind to SR344 (injection sample buffer: 10 mM MES (pH 7.4), 150 mM NaCl, 0.05% TWEEN® 20 (polyoxyethelene sorbitan monolaurate)), and the pH-dependent dissociation of each clone at the mobile phase pH of 5.8 was observed (FIG. 10).
# (§2) The dissociation rate […]) at pH 5.8 was calculated using Biacore T100™ Evaluation Software (GE Healthcare) by fitting only the dissociation phase at pH 5.8, where 0.5 μg/mL of the sample was bound in 10 mM MES (pH 7.4), 150 mM NaCl, and 0.05% TWEEN® 20 (polyoxyethelene sorbitan monolaurate), and dissociated in 10 mM MES (pH 5.8), 150 mM NaCl, and 0.05% TWEEN® 20 (polyoxyethelene sorbitan monolaurate). Similarly, the dissociation rate (kd(1/s)) at pH 7.4 was calculated using Biacore T100™ Evaluation Software (GE Healthcare) by fitting only the dissociation phase at pH 7.4, where 0.5 μg/mL of the sample was bound in 10 mM MES (pH 7.4), 150 mM NaCl, and 0.05% TWEEN® 20 (polyoxyethelene sorbitan monolaurate), and dissociated in 10 mM MES (pH 7.4), 150 mM NaCl, and 0.05% TWEEN® 20 (polyoxyethelene sorbitan monolaurate).
# [3] = target: T1, recombinant soluble human IL-6 receptor …; assay: SPR Biacore T100, biotinylated SR344 on streptavidin chip (model of membrane IL-6 receptor), antibody 0.5 ug/mL as analyte, bound at pH 7.4, dissociation at pH 5.8, 37 C
# Protocol: as §1, §2
# [4] = target: T1, recombinant soluble human IL-6 receptor …; assay: SPR Biacore T100, biotinylated SR344 on streptavidin chip (model of membrane IL-6 receptor), antibody 0.5 ug/mL as analyte, bound at pH 7.4, dissociation at pH 7.4, 37 C
# Protocol: as §1, §2
# [5] = target: T1, recombinant soluble human IL-6 receptor …; assay: SPR Biacore T100, biotinylated SR344 on streptavidin chip (model of membrane-type IL-6 receptor), antibody 0.25 ug/mL as analyte, bound at pH 7.4, dissociation at pH 7.4, 37 C
Kd [1] [nM],koff [1] [s⁻¹],kon [1] [M⁻¹ s⁻¹],kd ratio pH 5.8/pH 7.4 [2],koff [3] [s⁻¹],koff [4] [s⁻¹],koff [5] [s⁻¹],Binder
5,0.0038,760000,1.5,0.000715,0.000484,0.00025,"humanized PM1 antibody (wild type, WT) (antibody, human IgG1, kappa, V domains shown, IgG1; also called WT-IgG1; wild type humanized anti-IL-6 receptor antibody) VH: QVQLQESGPGLVRPSQTLSLTCTVSGYSITSDHAWSWVRQPPGRGLEWIGYISYSGITTYNPSLKSRVTMLRDTSKNQFSLRLSSVTAADTAVYYCARSLARTTAMDYWGQGSLVTVSS VL: DIQMTQSPSSLSASVGDRVTITCRASQDISSYLNWYQQKPGKAPKLLIYYTSRLHSGVPSRFSGSGSGTDFTFTISSLQPEDIATYYCQQGNTLPYTFGQGTKVEIKR"
–,–,–,–,–,–,0.00047,"Fv4-IgG1 (antibody, VH3-IgG1 / VL3-CK) heavy: not shown light: DIQMTQSPSSLSASVGDSVTITCQASTDISSHLNWYQQKPGKAPELLIYYGSHLLSGVPSRFSGSGSGTDFTFTISSLEAEDAATYYCGQGNRLPYTFGQGTKVEIERTVAAPSVFIFPPSDEQLKSGTASVVCLLNNFYPREAKVQWKVDNALQSGNSQESVTEQDSKDSTYSLSSTLTLSKADYEKHKVYACEVTHQGLSSPVTKSFNRGEC"
57,0.0097,170000,11,0.00378,0.000344,0.00026,"H3pI/L73 (antibody, IgG1, V domains shown, tested as IgG1; also called H3pI/L73-IgG1; H3pl/L73) VH: QVQLQESGPGLVKPSETLSLTCAVSGHSISHDHAHSWVRQPPGEGLEWIGYISYSGITNYNPSLKGRVTISRDTSKNQFSLKLSSVTAADTAAYYCARSLARTTAMDYWGEGTLVTVSS VL: DIQMTQSPSSLSASVGDSVTITCQASQHISSHLNWYQQKPGKAPELLIYYGSHLHSGVPSRFSGSGSGTDFTFTISSLEAEDAATYYCGQGNRLPYTFGQGTKVEIE"
640,0.017,26000,1.9,0.00144,0.00077,–,"H170/L82 (antibody, IgG1, V domains shown, expressed and purified as IgG (IgG1); also called H170/L82-IgG1) VH: QVQLQESGPGLVKPSETLSLTCAVSGHSISHHHAHSWVRQPPGEGLEWIGYISYSGITHYNPHLKGRVTISRDTSKNQFSLKLSSVTAADTAAYYCARVLARITAMDHWGEGTLVTVSS VL: DIQMTQSPSSLSASVGDSVTITCQASQDISSHLNWYQQKPGKAPELLIYYGSHLHSGVPSRFSGSGSGTDFTFTISSLEAEDAATYYCGQGNRLPYTFGQGTKVEIE"
